From patent US7189691B2, “Methods and compositions for treating leukemia” (The Administrators of the Tulane Educational Fund, priority 2004, dated 2007)
Ends that are not written are not given here.

Experiments:
AF4-AF9 interaction = biological target: T1, AF4-AF9 interaction (Homo sapiens, UniProt P42568); assay: Enzyme-linked protein binding assay, GST-AF4(749-775) and biotinylated AF9; conditions: peptide 20 μg/ml; FIG. 2A
T1 construct: made in house; host or cells: GST-AF4 from E. coli; AF9 by coupled in vitro transcription/translation (Promega)
T1 sequence (P42568 211-568): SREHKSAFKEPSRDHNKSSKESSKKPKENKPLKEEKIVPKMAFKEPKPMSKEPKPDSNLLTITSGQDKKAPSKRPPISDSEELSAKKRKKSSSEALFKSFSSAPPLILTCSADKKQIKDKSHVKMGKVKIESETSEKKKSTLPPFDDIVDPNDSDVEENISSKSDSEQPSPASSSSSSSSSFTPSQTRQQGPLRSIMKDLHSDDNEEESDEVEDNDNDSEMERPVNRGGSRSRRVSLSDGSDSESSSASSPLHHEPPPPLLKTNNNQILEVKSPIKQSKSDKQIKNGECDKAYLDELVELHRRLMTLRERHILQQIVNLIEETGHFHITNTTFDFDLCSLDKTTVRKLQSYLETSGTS
Procedure: Next, an enzyme-linked protein binding assay was developed as a potential high throughput tool to semi-quantitatively assess the ability of various compounds to disrupt the AF4-AF9 interaction in vitro (FIGS. 2A and 2B).
GST-AF4 (749–775) SEQ ID NO: 107 was bound to glutathione-coated 96-well plates and incubated with biotinylated AF9 in conjunction with 20 μg/ml of the following peptides: • (a) Pen-[…], a fusion protein of PENETRATIN™ transporter peptide to the amino terminus of […](SEQ ID NO: 110, PFmut), • (b) Pen-[…], a fusion protein of the transporter protein PENETRATIN™ to the amino terminus of […](SEQ ID NO: 2; or PFWT), • (c) […] or […](SEQ ID NO: 111); • (d) […] or […] (SEQ ID NO: 112); • (e) […] or […](SEQ ID NO: 113), or with • (f) DMSO, or • (g) GST-Cx, a control.
The plate was washed and the retention of AF9 was determined by a colorimetric assay using streptavidin-alkaline phosphatase and pNPP as a substrate. […] At this same peptide concentration, PFmut (a) in col. […] The 10 amino acid peptide (d) in col. 6 is the smallest molecule found to have activity in vitro.

B1 leukemia cell line = assay: MTT viability assay; assay type: cell-based; conditions: 72 h, differing concentrations
Procedure: All cell lines were maintained in RPMI 1640+10% FCS. 100 μl aliquots of cell suspension (5×10^5 cells/ml) were cultured in flat-bottomed 96 well plates in the presence of different concentrations of peptides. After 72 h incubation at 37° C. in humidified air containing 5% CO2, viable cell number was determined by MTT assay as follows: 10 μl of 3-[4,5-dimethylthiazol-2-yl]-2,5-diphenyl tetrazolium bromide (MTT) (5 mg/ml concentration) (Sigma) was added to each well and incubated further for 6 h. Formazan crystals that are formed during incubation were dissolved in 100 μl of acidified isopropanol. The optical density at 550 nm (which is linearly related to the number of viable cells) was measured using a plate spectrophotometer. Growth characteristics of the leukemia cell lines were also determined for cells by Trypan Blue exclusion.

Row | Substance | AF9 binding to GST-AF4 (retention of AF9) (AF4-AF9 interaction) | cell viability (B1 leukemia cell line)
1 | WVKIDLDL [(e)] | did not interfere with AF9 binding | –
2 | Leu-Trp-Val-Lys-Ile-Asp-Leu-Asp-Leu-Leu- (LWVKIDLDLL; structurally based on a fragment of the naturally occuring human and murine AF4 protein family members) [(d)] | block AF9 binding | –
3 | LWVKIDLDLLSR [(c)] | block AF9 binding | –
4 | Lys-Lys-Lys-Lys-Lys-Lys-Arg-Lys-Val-Leu-Ile-Val-Arg-Ile-Asp-Leu-Asp-Leu-Leu-Ser- (KKKKKKRKVLIVRIDLDLLS; structurally based on a fragment of the naturally occuring human and murine AF4 protein family members) [SPK4] | – | inhibits
